Each block holds one binder with its values, some of them ahead of it.
Key:
[1] = molecular target: T1, sIGF-1R(1-903) (human, UniProt P08069 31-933); assay: ITC series titration, C06 MAb first
T1 construct: also called soluble IGF-1R ectodomain
Description: The protein solutions were prepared as described above for the MAb binding experiments. All ITC experiments were performed on an ITC₂₀₀ microcalorimeter (MicroCal, LLC) at 25° C. […] IGF-1R bispecific antibodies. A four minute equilibration period was used between all injections with an initial delay of 60 seconds. Numerical integration of the data was performed using the ITC data analysis software supplied by MicroCal (Origin). ΔHA° (T) values were calculated based on the difference between the average heat liberated/absorbed during the binding phase of the injections and the average heat of dilution found once the receptor, IGF-1R, was saturated with MAb or BsAb.
Both the dimeric receptor and the bivalent MAbs contain two potential binding sites.

[2] = molecular target: T2, human IGF-1R(1-903)-Fc (human, UniProt P08069 31-933); assay: IGF-1 blocking ELISA at 20 nM IGF-1 His on biotinylated hIGF-1R-Fc
T2 construct: also called hIGF-1R-Fc; SDWT; not shown: human IgG1 Fc, C-terminal tag
T2 sequence (P08069 31-933): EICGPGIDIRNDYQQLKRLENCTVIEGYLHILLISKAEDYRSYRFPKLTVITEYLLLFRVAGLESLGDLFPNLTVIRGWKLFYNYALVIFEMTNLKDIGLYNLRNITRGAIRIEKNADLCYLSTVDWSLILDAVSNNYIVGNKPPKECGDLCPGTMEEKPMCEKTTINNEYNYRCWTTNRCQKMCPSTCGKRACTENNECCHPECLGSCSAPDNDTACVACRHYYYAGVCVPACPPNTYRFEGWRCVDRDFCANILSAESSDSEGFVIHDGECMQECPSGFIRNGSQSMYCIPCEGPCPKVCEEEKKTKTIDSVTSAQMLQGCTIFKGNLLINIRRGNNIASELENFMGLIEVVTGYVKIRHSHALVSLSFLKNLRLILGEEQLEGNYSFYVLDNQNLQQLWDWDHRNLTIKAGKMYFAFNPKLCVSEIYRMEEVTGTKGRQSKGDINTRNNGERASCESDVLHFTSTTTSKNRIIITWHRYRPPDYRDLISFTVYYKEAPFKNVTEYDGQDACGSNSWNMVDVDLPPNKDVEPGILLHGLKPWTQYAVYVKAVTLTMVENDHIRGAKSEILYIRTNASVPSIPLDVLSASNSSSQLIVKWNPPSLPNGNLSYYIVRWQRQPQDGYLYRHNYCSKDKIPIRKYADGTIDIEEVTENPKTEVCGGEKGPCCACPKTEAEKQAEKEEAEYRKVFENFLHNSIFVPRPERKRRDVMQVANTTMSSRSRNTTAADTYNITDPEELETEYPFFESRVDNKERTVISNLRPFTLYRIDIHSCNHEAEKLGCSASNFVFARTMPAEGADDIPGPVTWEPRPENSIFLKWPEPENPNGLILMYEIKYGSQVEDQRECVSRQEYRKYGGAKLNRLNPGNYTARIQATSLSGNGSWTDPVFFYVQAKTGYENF
Description: (§1) The dilutions were added to the plates in duplicate at 100 μL/well and the plates were incubated at RT for 1 hour. The plates were then washed four times with 200 μL/well PBST. An HRP-conjugated anti-Histag antibody (Penta-His HRP Conjugate, QIAGEN, Cat. No. 1014992) was diluted 1:1000 in PBST and added to plates at 100 μL/well, and the plates were incubated at RT for one hour. The plates were then washed four times with 200 μL/well PBST. SureBlue Reserve TMB Microwell Peroxidase Substrate (KPL, Cat. No. 53-00-01) was added to plates at 100 μL/well followed by 1% phosphoric acid at 100 μL/well once the desired reaction was observed. The absorbance of each well was determined at 450 nm, and the results were normalized and plotted against the log of antibody concentration.
(§2) Ligand Blocking Properties.

[3] = molecular target: T2, human IGF-1R(1-903)-Fc; assay: IGF-1 blocking ELISA at 80 nM IGF-1 His on biotinylated hIGF-1R-Fc
Description: as §1, §2

[4] = molecular target: T3, hIGF-1R-Fc mutant SD102 (E459A, S460A) (human, UniProt P08069 31-933); assay: SPR, Fab over captured mutant
T3 construct: not shown: human IgG1 Fc, C-terminal tag
T3 sequence (P08069 31-933 E489A/S490A): as the sequence (P08069 31-933) above, with E459A, S460A counted along it
Description: (§3) Surface plasmon resonance (SPR) experiments were performed on a Biacore 3000 instrument set to 25° C. […] The antibody sensorchip surfaces were prepared by injecting each antibody (diluted 100 μg/mL in 10 mM Acetate, pH 4.0) over EDC/NHS-activated sensorchip surfaces according to the standard protocol of the manufacturer. […] Both hIGF-1R-Fc and mIGF-1R-Fc proteins oligomerize due to the incorporation of two separate homodimeric regions (IGF-1R and IgG1-Fc). […] After, completion of the receptor-Fc loading step, flow rates were elevated to 5 μl/min. […] Dissociation was measured for 7 minutes after the antibody injections were complete. Finally, the flow rate was elevated to 30 μL/min and the chip surfaces were regenerated by 2×10 μL injections of 0.1 M glycine, pH 2.

[5] = molecular target: T4, hIGF-1R-Fc mutant SD103 (D461A, V462T) (human, UniProt P08069 31-933); assay: SPR, Fab over captured mutant
T4 construct: not shown: human IgG1 Fc, C-terminal tag
T4 sequence (P08069 31-933 D491A/V492T): as the sequence (P08069 31-933) above, with D461A, V462T counted along it
Description: as §3

[6] = molecular target: T5, hIGF-1R-Fc mutant SD104 (H464A) (human, UniProt P08069 31-933); assay: SPR, Fab over captured mutant
T5 construct: not shown: human IgG1 Fc, C-terminal tag
T5 sequence (P08069 31-933 H494A): as the sequence (P08069 31-933) above, with H464A counted along it
Description: as §3

[7] = molecular target: T6, hIGF-1R-Fc mutant SD108 (H480E) (human, UniProt P08069 31-933); assay: SPR, Fab over captured mutant
T6 construct: not shown: human IgG1 Fc, C-terminal tag
T6 sequence (P08069 31-933 H510E): as the sequence (P08069 31-933) above, with H480E counted along it
Description: as §3

[8] = molecular target: T7, hIGF-1R-Fc mutant SD109 (Y482A, R483W) (human, UniProt P08069 31-933); assay: SPR, Fab over captured mutant
T7 construct: not shown: human IgG1 Fc, C-terminal tag
T7 sequence (P08069 31-933 Y512A/R513W): as the sequence (P08069 31-933) above, with Y482A, R483W counted along it
Description: as §3

[9] = molecular target: T8, hIGF-1R-Fc mutant SD113 (E570A, I571T) (human, UniProt P08069 31-933); assay: SPR, Fab over captured mutant
T8 construct: not shown: human IgG1 Fc, C-terminal tag
T8 sequence (P08069 31-933 E600A/I601T): as the sequence (P08069 31-933) above, with E570A, I571T counted along it
Description: as §3

[10] = molecular target: T9, hIGF-1R-Fc mutant SD015 (H464E) (human, UniProt P08069 31-933); assay: SPR (Biacore 3000): SD015 captured on immobilized M13-C06 surface, M13-C06 (Fab according to paragraph 695) injected at 0, 1, 3, 10 nM
T9 construct: not shown: human IgG1 Fc, C-terminal tag
T9 sequence (P08069 31-933 H494E): as the sequence (P08069 31-933) above, with H464E counted along it
Description: After, completion of the receptor-Fc loading step, flow rates were elevated to 5 μl/min. […] At the end of each sensorgram, the flow rate was elevated to 30 μl/min and the chip surface was regenerated by 2×10 μL injections of 0.1 M glycine, pH 2.

T1 sequence (P08069 31-933): as the sequence (P08069 31-933) above

- ΔH° [1]: -21.9 kcal/mol
- IC50 (read off the curve) [2]: ~1000 pM
- IC50 (read off the curve) [3]: ~1000 pM
B1: M13-C06 antibody (antibody, V domains shown)
VH: EVQLLESGGGLVQPGGSLRLSCAASGFTFSIYRMQWVRQAPGKGLEWVSGISPSGGTTWYADSVKGRFTISRDNSKNTLYLQMNSLRAEDTAVYYCARWSGGSGYAFDIWGQGTMVTVSS
VL: DIQMTQSPLSLSASVGDRVTITCQASRDIRNYLNWYQQKPGKAPKLLIYDASSLQTGVPSRFGGSGSGTDFSFTIGSLQPEDIATYYCQQFDSLPHTFGQGTKLEIK
notes: Fully human full-length antibody (ATCC PTA-7444); also called M13.C06.G4.P.agly; M13-C06.G4P.agly

- binding result [4]: no binding (tested: up to 10 nM Fab)
- binding result [5]: no binding (tested: up to 10 nM Fab)
- binding result [6]: no binding (tested: up to 10 nM Fab)
- binding result [7]: no binding (tested: up to 10 nM Fab)
- binding result [8]: no binding (tested: up to 10 nM Fab)
- binding result [9]: no binding (tested: up to 10 nM Fab)
- binding result [10]: no binding (tested: 10 nM)
B2: M13-C06 Fab (Fab, V domains shown)
VH: B1 VH
VL: B1 VL
notes: Fab made by enzymatic digestion of the IgG

— patent US20090130105A1 (Biogen, published 2009)
